Source: article PMC11574045, “A cofactor-induced repressive type of transcription factor condensation can be induced by synthetic peptides to suppress tumorigenesis” (The EMBO Journal, 2024)

Test system: HEK293FT cells transfected with TF library
Assay: Screening of TF condensates based on fluorescent puncta
Type: cell-based
Settings: Figure 1B numerical data; TF library screen, one value per transcriptional factor
In short: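 HEK293FT cells were reverse-transfected with Flag- or GAL4-tagged TF plasmids (1.6 μg/ml, PEI). After 60 h, cells were cultured 12 h with or without glucose, then fixed and immunostained with anti-Flag or anti-GAL4 and Alexa 488 secondaries. Fluorescent puncta were imaged over fifty random fields per well by high-content imaging.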

B1: GLI4 (protein, UniProt P10075 1-376, looked up)
Zinc finger protein GLI4: MAALGDIQESPSVPSPVSLSSPGTPGTQHHEPQLHLHGHQHGSPGSSPKVLSQPSDLDLQDVEEVEIGRDTFWPDSEPKPEQAPRSPGSQAPDEGAGGALRSLLRSLPRRARCSAGFGPESSAERPAGQPPGAVPCAQPRGAWRVTLVQQAAAGPEGAPERAAELGVNFGRSRQGSARGAKPHRCEACGKSFKYNSLLLKHQRIHTGEKPYACHECGKRFRGWSGFIQHHRIHTGEKPYECGQCGRAFSHSSHFTQHLRIHNGEKPYKCGECGQAFSQSSNLVRHQRLHTGEKPYACSQCGKAFIWSSVLIEHQRIHTGEKPYECSDCGKAFRGRSHFFRHLRTHTGEKPFACGACGKAFGQSSQLIQHQRVHYRE
In the case of B1, the “Z score of condensed fraction” value is reported as 0.3449.

B2: GMNN (protein, UniProt O75496 1-209, looked up)
Geminin: MNPSMKQKQEEIKENIKNSSVPRRTLKMIQPSASGSLVGRENELSAGLSKRKHRNDHLTSTTSSPGVIVPESSENKNLGGVTQESFDLMIKENPSSQYWKEVAEKRRKALYEALKENEKLHKEIEQKDNEIARLKKENKELAEVAEHVQYMAELIERLNGEPLDNFESLDNQEFDSEEETVEDSLVEDSEIGTCAEGTVSSSTDAKPCI
In the case of B2, the “Z score of condensed fraction” value is reported as 0.2471.

B3: GTF2A1 (protein, UniProt P52655 2-376, looked up)
Transcription initiation …: ANSANTNTVPKLYRSVIEDVINDVRDIFLDDGVDEQVLMELKTLWENKLMQSRAVDGFHSEEQQLLLQVQQQHQPQQQQHHHHHHHQQAQPQQTVPQQAQTQQVLIPASQQATAPQVIVPDSKLIQHMNASNMSAAATAATLALPAGVTPVQQILTNSGQLLQVVRAANGAQYIFQPQQSVVLQQQVIPQMQPGGVQAPVIQQVLAPLPGGISPQTGVIIQPQQILFTGNKTQVIPTTVAAPTPAQAQITATGQQQPQAQPAQTQAPLVLQVDGTGDTSSEEDEDEEEDYDDDEEEDKEKDGAEDGQVEEEPLNSEDDVSDEEGQELFDTENVVVCQYDKIHRSKNKWKFHLKDGIMNLNGRDYIFSKAIGDAEW
With B3 the “Z score of condensed fraction” value was 0.06864.

B4: GLI1 (protein, UniProt P08151 1-1106, looked up)
Zinc finger protein GLI1: MFNSMTPPPISSYGEPCCLRPLPSQGAPSVGTEGLSGPPFCHQANLMSGPHSYGPARETNSCTEGPLFSSPRSAVKLTKKRALSISPLSDASLDLQTVIRTSPSSLVAFINSRCTSPGGSYGHLSIGTMSPSLGFPAQMNHQKGPSPSFGVQPCGPHDSARGGMIPHPQSRGPFPTCQLKSELDMLVGKCREEPLEGDMSSPNSTGIQDPLLGMLDGREDLEREEKREPESVYETDCRWDGCSQEFDSQEQLVHHINSEHIHGERKEFVCHWGGCSRELRPFKAQYMLVVHMRRHTGEKPHKCTFEGCRKSYSRLENLKTHLRSHTGEKPYMCEHEGCSKAFSNASDRAKHQNRTHSNEKPYVCKLPGCTKRYTDPSSLRKHVKTVHGPDAHVTKRHRGDGPLPRAPSISTVEPKREREGGPIREESRLTVPEGAMKPQPSPGAQSSCSSDHSPAGSAANTDSGVEMTGNAGGSTEDLSSLDEGPCIAGTGLSTLRRLENLRLDQLHQLRPIGTRGLKLPSLSHTGTTVSRRVGPPVSLERRSSSSSSISSAYTVSRRSSLASPFPPGSPPENGASSLPGLMPAQHYLLRARYASARGGGTSPTAASSLDRIGGLPMPPWRSRAEYPGYNPNAGVTRRASDPAQAADRPAPARVQRFKSLGCVHTPPTVAGGGQNFDPYLPTSVYSPQPPSITENAAMDARGLQEEPEVGTSMVGSGLNPYMDFPPTDTLGYGGPEGAAAEPYGARGPGSLPLGPGPPTNYGPNPCPQQASYPDPTQETWGEFPSHSGLYPGPKALGGTYSQCPRLEHYGQVQVKPEQGCPVGSDSTGLAPCLNAHPSEGPPHPQPLFSHYPQPSPPQYLQSGPYTQPPPDYLPSEPRPCLDFDSPTHSTGQLKAQLVCNYVQSQQELLWEGGGREDAPAQEPSYQSPKFLGGSQVSPSRAKAPVNTYGPGFGPNLPNHKSGSYPTPSPCHENFVVGANRASHRAAAPPRLLPPLPTCYGPLKVGGTNPSCGHPEVGRLGGGPALYPPPEGQVCNPLDSLDLDNTQLDFVAILDEPQGLSPPPSHDQRGSSGHTPPPSGPPNMAVGNMSVLLRSLPGETEFLNSSA
For B4, the “Z score of condensed fraction” value was 1.126.

B5: GDNF (protein, UniProt P39905 78-211, looked up)
Glial cell line-derived …: SPDKQMAVLPRRERNRQAAAANPENSRGKGRRGQRGKNRGCVLTAIHLNVTDLGLGYETKEELIFRYCSGSCDAAETTYDKILKNLSRNRRLVSDKVGQACCRPIAFDDDLSFLDDNLVYHILRKHSAKRCGCI
In the case of B5, the “Z score of condensed fraction” value is reported as -0.9627.

B6: GRHL3 (protein, UniProt Q8TE85 1-626, looked up)
Grainyhead-like protein 3 …: MSNELDFRSVRLLKNDPVNLQKFSYTSEDEAWKTYLENPLTAATKAMMRVNGDDDSVAALSFLYDYYMGPKEKRILSSSTGGRNDQGKRYYHGMEYETDLTPLESPTHLMKFLTENVSGTPEYPDLLKKNNLMSLEGALPTPGKAAPLPAGPSKLEAGSVDSYLLPTTDMYDNGSLNSLFESIHGVPPTQRWQPDSTFKDDPQESMLFPDILKTSPEPPCPEDYPSLKSDFEYTLGSPKAIHIKSGESPMAYLNKGQFYPVTLRTPAGGKGLALSSNKVKSVVMVVFDNEKVPVEQLRFWKHWHSRQPTAKQRVIDVADCKENFNTVEHIEEVAYNALSFVWNVNEEAKVFIGVNCLSTDFSSQKGVKGVPLNLQIDTYDCGLGTERLVHRAVCQIKIFCDKGAERKMRDDERKQFRRKVKCPDSSNSGVKGCLLSGFRGNETTYLRPETDLETPPVLFIPNVHFSSLQRSGGAAPSAGPSSSNRLPLKRTCSPFTEEFEPLPSKQAKEGDLQRVLLYVRRETEEVFDALMLKTPDLKGLRNAISEKYGFPEENIYKVYKKCKRGETSLLHPRLSRHPPPDCLECSHPVTQVRNMGFGDGFWRQRDLDSNPSPTTVNSLHFTVNSE
B6 was tested, and the “Z score of condensed fraction” value was -0.6859.

B7: GTF2A1L (protein, UniProt Q9UNN4 1-478, looked up)
TFIIA-alpha and beta-like …: MACLNPVPKLYRSVIEDVIEGVRNLFAEEGIEEQVLKDLKQLWETKVLQSKATEDFFRNSIQSPLFTLQLPHSLHQTLQSSTASLVIPAGRTLPSFTTAELGTSNSSANFTFPGYPIHVPAGVTLQTVSGHLYKVNVPIMVTETSGRAGILQHPIQQVFQQLGQPSVIQTSVPQLNPWSLQATTEKSQRIETVLQQPAILPSGPVDRKHLENATSDILVSPGNEHKIVPEALLCHQESSHYISLPGVVFSPQVSQTNSNVESVLSGSASMAQNLHDESLSTSPHGALHQHVTDIQLHILKNRMYGCDSVKQPRNIEEPSNIPVSEKDSNSQVDLSIRVTDDDIGEIIQVDGSGDTSSNEEIGSTRDADENEFLGNIDGGDLKVPEEEADSISNEDSATNSSDNEDPQVNIVEEDPLNSGDDVSEQDVPDLFDTDNVIVCQYDKIHRSKNKWKFYLKDGVMCFGGRDYVFAKAIGDAEW
In the case of B7, the “Z score of condensed fraction” value is reported as 3.206.

B8: GTF2I (protein, UniProt P78347 2-998, looked up)
General transcription factor …: AQVAMSTLPVEDEESSESRMVVTFLMSALESMCKELAKSKAEVACIAVYETDVFVVGTERGRAFVNTRKDFQKDFVKYCVEEEEKAAEMHKMKSTTQANRMSVDAVEIETLRKTVEDYFCFCYGKALGKSTVVPVPYEKMLRDQSAVVVQGLPEGVAFKHPENYDLATLKWILENKAGISFIIKRPFLEPKKHVGGRVMVTDADRSILSPGGSCGPIKVKTEPTEDSGISLEMAAVTVKEESEDPDYYQYNIQAGPSETDDVDEKQPLSKPLQGSHHSSEGNEGTEMEVPAEDSTQHVPSETSEDPEVEVTIEDDDYSPPSKRPKANELPQPPVPEPANAGKRKVREFNFEKWNARITDLRKQVEELFERKYAQAIKAKGPVTIPYPLFQSHVEDLYVEGLPEGIPFRRPSTYGIPRLERILLAKERIRFVIKKHELLNSTREDLQLDKPASGVKEEWYARITKLRKMVDQLFCKKFAEALGSTEAKAVPYQKFEAHPNDLYVEGLPENIPFRSPSWYGIPRLEKIIQVGNRIKFVIKRPELLTHSTTEVTQPRTNTPVKEDWNVRITKLRKQVEEIFNLKFAQALGLTEAVKVPYPVFESNPEFLYVEGLPEGIPFRSPTWFGIPRLERIVRGSNKIKFVVKKPELVISYLPPGMASKINTKALQSPKRPRSPGSNSKVPEIEVTVEGPNNNNPQTSAVRTPTQTNGSNVPFKPRGREFSFEAWNAKITDLKQKVENLFNEKCGEALGLKQAVKVPFALFESFPEDFYVEGLPEGVPFRRPSTFGIPRLEKILRNKAKIKFIIKKPEMFETAIKESTSSKSPPRKINSSPNVNTTASGVEDLNIIQVTIPDDDNERLSKVEKARQLREQVNDLFSRKFGEAIGMGFPVKVPYRKITINPGCVVVDGMPPGVSFKAPSYLEISSMRRILDSAEFIKFTVIRPFPGLVINNQLVDQSESEGPVIQESAEPSQLEVPATEEIKETDGSSQIKQEPDPTW
In the case of B8, the “Z score of condensed fraction” value is reported as 0.02684.

B9: GLIS3 (protein, UniProt Q8NEA6 1-775, looked up)
Zinc finger protein GLIS3: MMVQRLGLISPPASQVSTACNQISPSLQRAMNAANLNIPPSDTRSLISRESLASTTLSLTESQSASSMKQEWSQGYRALPSLSNHGSQNGLDLGDLLSLPPGTSMSSNSVSNSLPSYLFGTESSHSPYPSPRHSSTRSHSARSKKRALSLSPLSDGIGIDFNTIIRTSPTSLVAYINGSRASPANLSPQPEVYGHFLGVRGSCIPQPRPVPGSQKGVLVAPGGLALPAYGEDGALEHERMQQLEHGGLQPGLVNHMVVQHGLPGPDSQSAGLFKTERLEEFPGSTVDLPPAPPLPPLPPPPGPPPPYHAHAHLHHPELGPHAQQLALPQATLDDDGEMDGIGGKHCCRWIDCSALYDQQEELVRHIEKVHIDQRKGEDFTCFWAGCPRRYKPFNARYKLLIHMRVHSGEKPNKCTFEGCEKAFSRLENLKIHLRSHTGEKPYLCQHPGCQKAFSNSSDRAKHQRTHLDTKPYACQIPGCTKRYTDPSSLRKHVKAHSSKEQQARKKLRSSTELHPDLLTDCLTVQSLQPATSPRDAAAEGTVGRSPGPGPDLYSAPIFSSNYSSRSGTAAGAVPPPHPVSHPSPGHNVQGSPHNPSSQLPPLTAVDAGAERFAPSAPSPHHISPRRVPAPSSILQRTQPPYTQQPSGSHLKSYQPETNSSFQPNGIHVHGFYGQLQKFCPPHYPDSQRIVPPVSSCSVVPSFEDCLVPTSMGQASFDVFHRAFSTHSGITVYDLPSSSSSLFGESLRSGAEDATFLQISTVDRCPSQLSSVYTEG
B9 was tested, and the “Z score of condensed fraction” value was 0.8153.

B10: GPS2 (protein, UniProt Q13227 1-327, looked up)
G protein pathway suppressor 2: MPALLERPKLSNAMARALHRHIMMERERKRQEEEEVDKMMEQKMKEEQERRKKKEMEERMSLEETKEQILKLEEKLLALQEEKHQLFLQLKKVLHEEEKRRRKEQSDLTTLTSAAYQQSLTVHTGTHLLSMQGSPGGHNRPGTLMAADRAKQMFGPQVLTTRHYVGSAAAFAGTPEHGQFQGSPGGAYGTAQPPPHYGPTQPAYSPSQQLRAPSAFPAVQYLSQPQPQPYAVHGHFQPTQTGFLQPGGALSLQKQMEHANQQTGFSDSSSLRPMHPQALHPAPGLLASPQLPVQMQPAGKSGFAATSQPGPRLPFIQHSQNPRFYHK
With B10 the “Z score of condensed fraction” value was -0.6135.
